# Source: the DeepSol protein solubility set
# Assay: soluble on expression in E. coli; label from the status in PepcDB or PDB records
row,Sequence,soluble on expression in E. coli
1,MAIIKRSAATDNPNIEILSTPEQIDVLSAEALMEALQGDDLEQILRAIHQLEAADSVEFQQHQAALFTLLDRDTEQNPCSDAVFSLLAIRNNDEITTRLIPLLDSEAPYLRNQAIEILQHSPQQLERHIQDLLNHQDPDVRIFAIDIIGLLPHQSVPEWLMQVLQHEEHINVIGTAIDRVAQLSDPNFSTILGEVKQRFSHVPYLVFACDVAIKRLNT,not soluble
2,MDESIDDVQETRTIAIPLKDSHEDEVIEINCSELPDGEEVLQILEAEEAKLSYWIEVALEYYRQDRVDLFMMILESAGSRAGLEYEGVKQDQMRALDILAAYWMTQGYREKAKDKKSDFFSKATVLFNTADKIAMYEWSHLTVRAWFYLFERDKSTNKYELADQQFNYVVKTNPKNVLPLIGKAVIAFNKKDYKTAIYYFRKAIRQCRHTIADLRVGIGHCFAKMGMMDKAKTAFERAMEIEPYNVSAMCGLGIILLNTYDHDSLKHAVSLFGRSYNLQTDHPVALIHLANHFFFKKEIERAWTLAWHAATYNDCDSIKAEAFYQMGRCRHAQGQFDGAYKYYYQARQANNGEHTLAHYGLGQMYIHRNEIEEAIKCFDTVHKRLPNNTDTMKILGSLYAHVQLNDPAQTAEARQKGRDVLGKYLAVENDDYEACIDLAQLLEATDPKRSLELYENAIDLLVTNESIQPQPEMLNNVGALYMSMKQYEKAEHHFKRAKERLEEQLNTDEGSLLLERRSAPEKSHLLTIRYNLALCLEHLCRTVEAEQMYKDIVKECPGYIDGYLRLGCITRDRHQVYESSLWLKQGVQFDQASPIVWTLIGNLHFAKNEWMPAQKKFEFILSKIFNNKIPDPYSLVALGNVWFEQLLNPSRKKEDEKKYIDRALQMYQKALKLQPKNMYAANGIGCVLAYKRNWNDARDVFSQVRESTSEFYDVWLNIAHVCMEREQWMAAVQMYSSAMKKFRKENDSTLQHYLAKAYYRANMLNEAKEALECAMLDQLDNTQLKFNYAIVLKKSAKEVLRGHKMTSEQVTAAIDDLKFADKIFQYISKNDDRQSSHTGMRISRTICAEEAKNCKDLLTQAKHKLAAAQTQDEEERRLMEKQEKEKIALQNKMIEEARAKEEAEKQKLEDMKNLRLSFIEMTKDVLRLPEIVEEKRRGGGGRKRRNDDGDEFVNDSSDAGNYDGEEGGEDGERRERRKKDKAAKKASRKKRERRDSGGPDSNRRDEKKRKRKEERDRKLQEKLSAKQSAKIKSRAFLSSSESSDDDKPKPAADSSDDEVDPRPPVDEFDSPTRTDSDSDRETTTKKKKKKAVVDSDEGSVSGSGSGSDNDDKPIIGGSDDDDDDKPAGGNSRDSDGSDAPKKKVIESDSD,not soluble
3,MGSDKIHHHHHHMKFVIRDLNTKKVMKNAYRITKTKYETSLRVRVPGGLIDPESLAVVSKIASEYGNGQVHITTRQGFEILGINMEDMEEINKIIQPVIEKMNINQSEKNAGYPAAGTRNIAACIGNKVCPKAQYNTTEFAKRIEKAIFPNDLHFKVALTGCPNDCIKARMNDFGIIGMALPIYEKDRCVNCGACVKKCSKISVGALKTENNKVVRDKDKCIGCGECVLNCPTNAWTRDEKKYYRLAIMGRTGKKNPRLAEDFLLWVDEDSIIKIILNTYRYVEKYIDKDAPGGKEHIGYIIDRTGFMEFKKWALEGVELPEITKMYENIYWSGIKYL,not soluble
4,MKAVVQRVTRASVTVGGEQISAIGRGICVLLGISLEDTQKELEHMVRKILNLRVFEDESGKHWSKSVMDKQYEILCVSQFTLQCVLKGNKPDFHLAMPTEQAEGFYNSFLEQLRKTYRPELIKDGKFGAYMQVHIQNDGPVTIELESPAPGTATSDPKQLSKLEKQQQRKEKTRAKGPSESSKERNTPRKEDRSASSGAEGDVSSEREP,soluble
5,MTLSILVAHDLQRVIGFENQLPWHLPNDLKHVKKLSTGHTLVMGRKTFESIGKPLPNRRNVVLTSDTSFNVEGVDVIHSIEDIYQLPGHVFIFGGQTLFEEMIDKVDDMYITVIEGKFRGDTFFPPYTFEDWEVASSVEGKLDEKNTIPHTFLHLIRKK,soluble
6,MKLFHTADWHLGKLVHGVYMTEDQKIVLDQFVQAVEEEKPDAVIIAGDLYDRAIPPTEAVDLLNDVLQKIVIDLQTPVIAVAGNHDSPDRIHFGSSLMKKQGLHIVGQFQFPYEPVVLNDEYGEVHFHLIPYADPSIVRHVLKNEDVRSHDDAMRIFMNELSETMDKEARHVFVGHAFVTSSGEAEENTSDAERPLSIGGAEYVNSHYFDKFHYTALGHLHQAHFVRNETIRYSGSPLAYSISEEKHKKGYYIVELNETGEVAIEKRLLSPRRKMRTVEAKIDELLQHPVSEDYVFVKLLDENPVLQPMEKIRSVYPNAMHVERAMQRRELTDTNEVTVSRHKTDDLSLLKAFYKEMKGLDLSEEKERLFIDVLQTVQEREGERG,not soluble
7,MSLKLLHERMMHSLARYPRQTAVVDEQDALSYEALELRIREFVAMLCALGVGQGQRILLWAHKSVDLVAVMQAALRLGVVYVPVDPLSPVSRLEKIAGDSQAVLVLCTAARLEELAGSALAQVRSVVLDDPASAGYWRNIDTGSSVVPTLAIQPDDLAYILYTSGSTGVPKGVALSHGNALAFVDWACERYCFQPGERFANHAPLHFDLSVLDIYCALNVGATVCLVPESIAFSPRLLTDFIRQHEISIWYSVPSVLMMMMQDGDLLSDIQDTLRVLLFAGEPFPVKHLRDLRAAYADVRLANLFGPTETNVCTAFEVGAIDPERVLPVPIGTAASGNQVWAQKPDGSRCAVGEEGELVVQGPTVMLGYFAKPAQEGPYKTGDMVRQRPDGNYEYLGRRDDMLKVRGNRIERGEVEAALLAHPQVSEAAVLVVGEGMNAQLWGVLVAHTRDALSLIDLKRHCAQRLPRYMIIDKVLCLDALPRNANGKVDRFALARQVEGHHHHHH,soluble
8,MGSDKIHHHHHHMKEISVVLVGIGGYGNKYVEYILREGREKGVRISGVVDPYPQNSRFYDELRSLNVPMYNTLEEFYSHHTADLAIISSPIHYHCEQTCTAVRNGSHVLCEKPAAATVKEVKKMIECREKYGKIVAIGYQWSYNPAVLKLKEDILAGKFGKPVLFKTLVLWPRDTAYYRRNSWAGKLKVNNRWVLDSVAGNATAHFLHNMLFLLGEKMEESAYPESMVAELYRANDIESFDTCALKMTVRKIPVLFFATHAVKERKGPVFEYRFEKARVICNYPEYPESEENLLVVYEDGRKEIYGPTDHGSMRKLWVVVDAARGRKEFICTLESAMAHTIAINGAHVSMKEIQDFPTELKRVEGEPPMIWVEGLKEAMERAYEEEKIFSELNLPWAKRGEEVKLENFEGLEGEITC,not soluble
9,MEAEVDKLELMFQKAESDLDYIQYRLEYEIKTNHPDSASEKNPVTLLKELSVIKSRYQTLYARFKPVAVEQKESKSRICATVKKTMNMIQKLQKQTDLELSPLTKEEKTAAEQFKFHMPDL,not soluble
10,MGSDKIHHHHHHMRIQVASDLHHELAVSNSAMAARLEHADDAVDVLVLAGDIHNQTGAIDLYADYPVPVVYVCGNHEFYGTEMLQLLPELRRRAVGTSVKLLEKDELILNNVRFLGCTMWTDYHAFPLCLNTAMEYARNHMLDHQRIRESNNGRFEPEDAAEEQRAALEFLVRKIREPFPGKTVVITHHAPSARSIHQHEQNNPLVPAFASNLEFLASEADLWIHGHIHLSSDYRLGNCRVICNPRGYPGRRNRSNPALAYENAQFDARKVIDV,not soluble
11,MKIMGFYSQVILPRLLDWSLSDPTLATYRQELLTDVTGEVLEIGFGTGLNLAYYPSHIHKITTVDVNPGMNTIAQKRIDDSGIKVQQLLLSGENLPMADNTFDSVVSTWTLCSIANVEQALQEVYRVLKPGGKFFFLEHGLSNKPNVQVWQNRLTPIQKVLADGCHLNRNIQQLVEQSFDHVELKRFTPENFPDLMAHFYKGCATKKSILEHHHHHH,soluble
12,AIAKLPISTISPIHYMKSVVSSRETRNESNKSRRTFASTEWNKIIRETLYLETVYIPVDATSHSPDIIFKLQSPVEPKVLTVGVACKGRWKSEGIGWSDIIDEAKKFLDPVYDQVLSSAMDYHHCMLIIVSTKLSLNVSNELGNQSRCYSSGMFIGGDSFKVPDNCELVILCERDVQMLIDKEILNGLERAFCVSHNPTFWDFGLDLLDRIRNSFLSWQ,soluble
13,MKEIWLLAESESWDEAKEMLKDAIEIGFDGALVRRDFLERAEKLGRMKIVPIEDAVVKISSAEDQERALQREVVVLKFEDWKVIPLENIVAMKKSGKVIAAVDTIEDAKLALTTLERGADGIAVSGDRETLRKFYEVVKEEGERVELVRARVKEIRPLGVGERVCIDTVTLMTPGEGMLVGNQASFMFLVASESEESEYVASRPFRVNAGSVNAYLKVGDKTRYLAELKAGDEVEVVKFDGAVRKSYVGRVKIERRPLILIRAEVDGVEGSVILQNAETIKLVAPDGKHVSVAELKPGDEILVWLGKKARHFGVEVDEFIVER,not soluble
14,MGSDKIHHHHHHMFYYERVNQFDTIAVSVDSVDRRRIKGTIDLDGLKFIMYFDYTQDVDIDYDLAGMIMTMPVINYAYFAKRIKLNFPVSLSFLKLVKEFIRINNIETFINSIVRRRYEFFLKEYLPSDEEITQENAEGRTEVLADISDGDKKKLEVDDRKVIVLSSGGKESLLTFGILKEIGAVVYPVFFNESGAHWKTAKVAYDYFSSKYENVLRVWSNVDRFYSFVNRHLKILDQDEIRRKADSYPVQMFIFPVYIFSVLPYVIKYGIGNIALGDELDDPIYEEPYHGIKHYYGVYDQTNDFNLTLTSFLREYGIHCKVFSAVYPIFGTLVEKILVQRYNDLFRVQRSCHLCHYEGGDVKPCGTCSKCLGVLLFMLNAEADPTEAGYSIEHVKQLEDNVNSASMRLDPDELEYLKAKVFEGRRINSHIEGIHQLPGENSAFSLVPERFRDGVRSIVSKYSTGFYKFVGSEWVKID,not soluble
15,MAHHHHHHMKGVIFCLVVLLWRQAWVSSKSHKCDFTKEKYLLSGEKEVSCEIDANPSDDITFICPNKIDSLCFHTVNISKNINQNKSTMSIQDLLYGSVVYGNTLFISPYVRTNTPFYCFCNLDTVTIQKFLKINRFLKDDDELSEADVMKHLKGGNVSEAQADEYLNKALNRFKKMKDLSKFFNDQADNTTKLNLPKSLNIPNDILNYDVYNSSNNRNDIVVKDEVTNKQIISKRGIMSVFVRSNNNVIKGCDFGNNNKNYFSHPISVAGKVNNKVCKIQGKPGELVGFKCAFEENGKVEPPNCFDQVLHKNKVTDLKTLIPGYASYTNKHSSKYPYYLKIPHFVNEQYTIQCKCKSNNSQNEYTFELDIQPGESEVVLNSFKTS,not soluble
16,MENKTLDHTLQGAPLWLTNFVLVYQKLSKENLQLLATIYHENVTFIDPLHTVEGFDDLYQYFENLYQNLSACDFVIEEVIWQDSQASLFWTMTYQHPKLNKGKMVTVVGTSHIKGEGDKVIYHRDFLDLGAMLYEQLPILGKLTKWIKTKAAN,not soluble
17,GAKPERGRFLHFHSVTFWVGNAKQAASFYCSKMGFEPLAYRGLETGSREVVSHVIKQGKIVFVLSSALNPWNKEMGDHLVKHGDGVKDIAFEVEDCDYIVQKARERGAKIMREPWVEQDKFGKVKFAVLQTYGDTTHTLVEKMNYIGQFLPGYEAPAFMDPLLPKLPKCSLEMIDHIVGNQPDQEMVSASEWYLKNLQFHRFWSVDDTQVHTEYSSLRSIVVANYEESIKMPINEPAPGKKKSQIQEYVDYNGGAGVQHIALKTEDIITAIRHLRERGLEFLSVPSTYYKQLREKLKTAKIKVKENIDALEELKILVDYDEKGYLLQIFTKPVQDRPTLFLEVIQRHNHQGFGAGNFNSLFKAFEEEQNLRGNLTNMETNGVVPGMAENLYFQ,soluble
18,GASSLKDEVPTETSEDFGFKFLGQKQILPSFNEKLPFASLQNLDISNSKSLFVAASGSKAVVGELQLLRDHITSDSTPLTFKWEKEIPDVIFVCFHGDQVLVSTRNALYSLDLEELSEFRTVTSFEKPVFQLKNVNNTLVILNSVNDLSALDLRTKSTKQLAQNVTSFDVTNSQLAVLLKDRSFQSFAWRNGEMEKQFEFSLPSELEELPVEEYSPLSVTILSPQDFLAVFGNVISETDDEVSYDQKMYIIKHIDGSASFQETFDITPPFGQIVRFPYMYKVTLSGLIEPDANVNVLASSCSSEVSIWDSKQVIEPSQDSERAVLPISEETDKDTNPIGVAVDVVTSGTILEPCSGVDTIERLPLVYILNNEGSLQIVGLFHVAAIKS,soluble
